Test results reported in patent publication US10208121B2, “Anti-Axl antagonistic antibodies” (BERGEN TEKNOLOGIOVERFORING AS, priority 2014, dated 2019).

T1: human Tyro3 (rhTyro3/Dtk-Fc chimera) (Homo sapiens, UniProt Q06418)
T1 construct: Soluble recombinant antigens corresponding to the extracellular domains of members of the human TAM receptor family; purchased R&D Systems 859-DK
T1 sequence (Q06418 41-429 limits assumed): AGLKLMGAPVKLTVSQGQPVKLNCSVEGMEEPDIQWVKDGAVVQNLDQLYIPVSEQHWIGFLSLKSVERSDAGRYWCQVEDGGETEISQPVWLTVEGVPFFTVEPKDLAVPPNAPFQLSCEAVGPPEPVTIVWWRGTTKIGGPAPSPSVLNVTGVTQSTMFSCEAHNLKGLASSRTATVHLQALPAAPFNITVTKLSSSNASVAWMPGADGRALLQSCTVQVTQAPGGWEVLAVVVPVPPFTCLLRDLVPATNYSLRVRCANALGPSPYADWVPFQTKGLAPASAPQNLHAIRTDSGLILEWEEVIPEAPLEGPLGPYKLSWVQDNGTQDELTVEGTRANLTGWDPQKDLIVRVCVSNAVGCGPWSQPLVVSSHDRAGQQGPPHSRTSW

T2: Mer (rhMer-Fc chimera) (Homo sapiens, UniProt Q12866)
T2 construct: Soluble recombinant antigens corresponding to the extracellular domains of members of the human TAM receptor family; purchased R&D Systems 891-MR
T2 sequence (Q12866 21-505 limits assumed): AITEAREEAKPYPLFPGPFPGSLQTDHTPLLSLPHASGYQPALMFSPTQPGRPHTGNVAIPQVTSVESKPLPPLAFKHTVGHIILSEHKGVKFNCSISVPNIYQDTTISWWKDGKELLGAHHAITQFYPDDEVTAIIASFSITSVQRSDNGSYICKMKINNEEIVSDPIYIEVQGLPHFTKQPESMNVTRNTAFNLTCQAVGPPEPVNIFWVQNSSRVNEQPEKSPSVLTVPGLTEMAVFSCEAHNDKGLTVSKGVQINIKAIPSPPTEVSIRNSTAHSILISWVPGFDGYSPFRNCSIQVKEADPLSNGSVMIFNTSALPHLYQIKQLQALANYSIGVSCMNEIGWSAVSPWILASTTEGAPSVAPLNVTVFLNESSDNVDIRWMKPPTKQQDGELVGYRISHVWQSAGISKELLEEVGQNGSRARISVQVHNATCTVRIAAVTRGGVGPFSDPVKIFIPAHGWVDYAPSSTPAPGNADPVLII

B1: 10C9: mouse anti-Axl monoclonal antibody from hybridoma UT-10C9-B9, IgG2b; VH SEQ ID NO: 3, VL SEQ ID NO: 4 (antibody, listed as Mus musculus, V domains shown)
VH: QVQLQQPGPELVKPGASVKISCKTSDYNFTRYYIHWVKQRPGQGLEWIGWIYPGTGDSKYNEKFKGRATLTADTSSSTAYMQLSSQTSEDSAVYFCARNGNYWYFDVWGAGTAVTVSS
VL: DIVMTQAAPSGPVTPGESVSISCRSSKSLLHSNGNTYLYWFLQRPGQSPQLLIYRMSNLASGVPDRFSGSGSGTAFTLRISRVEAEDVGIYYCMQHREYPFTFGGGTKLEIK
B2: 10G5: mouse anti-Axl monoclonal antibody from hybridoma WR-10G5-E5, IgG1; VH SEQ ID NO: 21, VL SEQ ID NO: 22 (antibody, listed as Mus musculus, V domains shown)
VH: QVQLQQSGAELVRPGASVKLSCKASGYSFTDFYINWVRQRPGQGLEWIARIFPGGDNTYYNEKFKGKATLTAEESSSTAYIQLSSLTSEDSAVYFCARRGLYYAMDYWGQGISVTVSS
VL: DVLMTQTPLSLPVSLGDQASISCRSSQSLVHSNGIPYLHWYLQKPGQSPKLLIYRVSNRFSGVPDRFSGSGSGTDFTLKISRVEAEDLGVYFCSQGTHVPPTFGGGTKLEIK

Tests used:
[1] = target: T1, human Tyro3 (rhTyro3/Dtk-Fc chimera); test: Biacore binding analysis on immobilized human Tyro3; conditions: 10 μg/mL, 25° C.
Protocol: (§1) All binding experiments were performed using Biacore 3000 instrument (GE Healthcare) at 25° C. Soluble recombinant antigens corresponding to the extracellular domains of members of the human TAM receptor family, Axl (rhAxl-Fc chimera; R&D Systems, Cat. no. 154-AL), Mer (rhMer-Fc chimera; R&D Systems, Cat. no. 891-MR) and Tyro3 (rhTyro3/Dtk-Fc chimera; R&D Systems, Cat. no. 859-DK) were immobilized on the surface of CM5 sensor chip using amine coupling at the surface density of 393.0, 303.6 and 364.0 resonance units (RU), respectively. The Biacore run was performed in an automatic mode using Binding analysis wizard. Samples containing either MAb 10C9 or MAb 10G5 at concentration 10 μg/mL in HBS-EP buffer (GE Healthcare) were injected over the surfaces with immobilized antigens at flow rate of 30 μL/min for 3 min (association) followed by 5 min dissociation.
The binding experiments were performed using Biacore 3000 instrument (GE Healthcare) at 25° C. The soluble recombinant antigens corresponding to human Axl (rhAxl-Fc chimera; R&D Systems, Cat. no. 154-AL), mouse Axl (rmAxl-Fc chimera; R&D Systems, R&D Systems; Cat. no. 854-AX) and human Tyro3 (rhTyro3/Dtk-Fc chimera; R&D Systems, Cat. no. 859-DK) were immobilized on the surface of CM5 sensor chip using amine coupling at the surface density of 1,308.0, 2,115.9 and 1,429.0 RU, respectively. The Biacore runs were performed in an automatic mode using Binding analysis wizard.
The sample containing either MAb 10C9, MAb 10G5 or recombinant mouse (rm) Axl-ligand Gas6 (R&D Systems, Cat. no. 986-GS/CF) at concentration 10 μg/mL in HBS-EP buffer (GE Healthcare) was injected over the surfaces with immobilized antigens at flow rate of 30 μL/min for 3 min (association) followed by 5 min dissociation.

[2] = target: T2, Mer (rhMer-Fc chimera); test: Biacore binding analysis on immobilized human Mer; conditions: 10 μg/mL, 25° C.
Protocol: as §1

Molecule | binding to human Tyro3 [1] | binding to human Tyro3 ([1]; listed as 1009) | binding to human Mer [2] | binding to human Mer ([2]; listed as 1009)
B1 | no binding | no significant binding | no binding | no significant binding
B2 | no significant binding |  | no significant binding | 
